{"source": "paper doi:10.1101/2024.02.22.581535", "about": "(2024)", "binders": {"B1": {"name": "Bio-His-FIKK13 (enzyme)", "chain": "MKKKENTQKLLNFVYYKIYLTFIVGLLYIFLLNILINHGGSKNDVRFTNIRCVRIFSENIKNINEISKKIYLYNIKNEKDDIICRDSLDNINEINNKINYTSVKGEDIIILKEGKYKNGCSDINFLDRKDVNKNDDQSFRNYHKTNNNKDENVNMKSYVYNWELGQKSLIKMLDYADNFYFNGVKYSDWKLTSMRRFNLNNNVLKDHKTYKSIINSKKGNDMKKVKLFIKKIPIDIWVEQFNLMKKYEGEYLIDKENYVMEAVSLAFLNEYYPGITPKFYKILYESDKNNMNEKNCKKYKFQDLNELNDILTKKLENNINGNIVLISEFFGENVFDYIKRKKNTLFVVSDISNEDKKKILYNSLNLLMRLHNAGLTHLDLSPDNMLISPKNYEMRLCDLSQSTPIYTNKLRHKEKLNSIKPFESFEPCIGKIEYIPPECWKIVWKYKMNNIKNPIEYLKNISNQEERKKYYYDVSCADKYMLGIFFIWMWNNGFIWKCSDPIQDKIFEIFMKSNMDLNKFIMTKSWPHELNNLINKLLHMEHRKTVKLSDLSRHPWWSSKN"}}, "assay_in_all_cases": "SPR", "key": {"[1]": {"target": "FIKK13_4_S7A_Y10A"}, "[2]": {"target": "FIKK13_4_S7A"}, "[3]": {"target": "FIKK13_4_Y10A"}, "[4]": {"target": "FIKK13_1"}, "[5]": {"target": "FIKK13_6"}}, "data": [{"binder": "B1", "values": [{"measurement": "Kd", "setting": "[1]", "result": "> 10", "unit": "µM"}, {"measurement": "Kd", "setting": "[2]", "result": 3.4, "unit": "µM"}, {"measurement": "Kd", "setting": "[3]", "result": "> 10", "unit": "µM"}, {"measurement": "Kd", "setting": "[4]", "result": "> 10", "unit": "µM"}, {"measurement": "Kd", "setting": "[5]", "result": "> 10", "unit": "µM"}]}]}
